Assay results reported in patent publication US20090226456A1 (published 2009).

Columns and labels:
Experiment in all cases: flow cytometry on transiently transfected cells
[1] = molecular target: T1, AITR on transiently transfected cells (UniProt Q9Y5U5 26-241, limits assumed)
T1 construct: whole, on cells
T1 sequence (looked up): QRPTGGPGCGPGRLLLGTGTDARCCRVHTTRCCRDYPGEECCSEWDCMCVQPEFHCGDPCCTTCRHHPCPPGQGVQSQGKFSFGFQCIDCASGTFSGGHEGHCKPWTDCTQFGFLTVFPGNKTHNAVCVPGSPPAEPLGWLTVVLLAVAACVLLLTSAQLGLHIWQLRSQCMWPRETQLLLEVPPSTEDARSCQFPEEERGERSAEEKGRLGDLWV
Experimental: (§1) One million cells, in 0.1 ml of FACS buffer (PBS, 0.1% BSA, 0.1% NaN₃), were incubated with 0.1-1 microgram of protein or antibody at RT for 15 min. The cells were washed with 3 ml of FACS buffer, reacted with biotinylated primary antibody, and stained with PE-conjugated secondary antibody at RT for 15 min. Cells were then washed again, resuspended in 0.5 microgram/ml of propidium iodide, and live cells were gated and analyzed on a FACScan using the CellQuest software (BD Biosciences).

[2] = molecular target: T2, RANK on transiently transfected cells (UniProt Q9Y6Q6 30-616, limits assumed)
T2 construct: whole, on cells
T2 sequence (looked up): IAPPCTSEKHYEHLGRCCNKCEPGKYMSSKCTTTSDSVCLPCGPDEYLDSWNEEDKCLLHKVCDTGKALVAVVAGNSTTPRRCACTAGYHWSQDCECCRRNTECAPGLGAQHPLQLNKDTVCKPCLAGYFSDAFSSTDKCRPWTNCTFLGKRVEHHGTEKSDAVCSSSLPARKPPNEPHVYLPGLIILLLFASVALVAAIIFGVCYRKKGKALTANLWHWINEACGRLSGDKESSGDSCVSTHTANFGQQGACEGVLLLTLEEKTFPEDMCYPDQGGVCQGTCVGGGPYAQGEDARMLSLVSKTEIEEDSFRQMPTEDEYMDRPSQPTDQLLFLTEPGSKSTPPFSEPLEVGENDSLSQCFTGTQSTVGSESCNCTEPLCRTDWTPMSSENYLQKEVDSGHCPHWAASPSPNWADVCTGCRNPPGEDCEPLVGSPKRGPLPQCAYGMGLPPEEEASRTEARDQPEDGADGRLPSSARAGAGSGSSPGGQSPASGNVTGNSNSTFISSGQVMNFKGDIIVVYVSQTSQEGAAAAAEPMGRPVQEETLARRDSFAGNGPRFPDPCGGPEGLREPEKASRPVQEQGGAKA
Experimental: as §1

[3] = molecular target: T3, HveA on transiently transfected cells (Homo sapiens (Human), UniProt Q92956 39-283)
T3 construct: also called HVEM/TR2
T3 sequence: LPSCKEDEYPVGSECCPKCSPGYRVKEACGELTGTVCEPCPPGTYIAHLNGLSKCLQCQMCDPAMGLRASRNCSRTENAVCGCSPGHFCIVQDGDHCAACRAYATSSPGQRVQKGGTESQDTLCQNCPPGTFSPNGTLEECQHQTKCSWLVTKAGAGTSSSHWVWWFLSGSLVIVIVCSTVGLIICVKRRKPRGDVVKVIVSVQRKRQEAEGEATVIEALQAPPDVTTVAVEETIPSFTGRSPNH
Experimental: as §1

[4] = molecular target: T4, 4-1BB on transiently transfected cells (UniProt Q07011 24-255)
T4 construct: whole, on cells
T4 sequence (Q07011 24-255): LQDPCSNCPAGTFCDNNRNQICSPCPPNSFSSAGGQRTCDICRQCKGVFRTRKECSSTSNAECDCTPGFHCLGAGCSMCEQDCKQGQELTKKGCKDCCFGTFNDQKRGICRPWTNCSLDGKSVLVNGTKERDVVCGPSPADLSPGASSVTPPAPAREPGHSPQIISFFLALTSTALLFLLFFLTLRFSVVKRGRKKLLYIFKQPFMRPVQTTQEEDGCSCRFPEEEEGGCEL
Experimental: as §1

[5] = molecular target: T5, TNFR2 on transiently transfected cells (human, UniProt P20333 23-461)
T5 sequence: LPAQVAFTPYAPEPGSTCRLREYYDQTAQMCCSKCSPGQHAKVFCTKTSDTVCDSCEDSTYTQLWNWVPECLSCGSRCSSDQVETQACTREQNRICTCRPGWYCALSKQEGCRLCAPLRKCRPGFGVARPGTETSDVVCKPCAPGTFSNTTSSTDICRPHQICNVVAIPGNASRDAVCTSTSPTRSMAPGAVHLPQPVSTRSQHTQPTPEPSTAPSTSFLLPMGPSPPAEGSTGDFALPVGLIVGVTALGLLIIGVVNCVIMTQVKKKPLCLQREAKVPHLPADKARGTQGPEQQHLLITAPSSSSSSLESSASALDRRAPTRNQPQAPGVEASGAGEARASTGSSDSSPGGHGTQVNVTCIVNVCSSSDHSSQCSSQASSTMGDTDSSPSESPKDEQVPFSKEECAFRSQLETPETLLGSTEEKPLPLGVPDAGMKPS
Experimental: as §1

Measured: binding result

B1: FLAG-tagged soluble TNF-gamma-beta (aa 72-251) (ligand, human)
chain: DYKDDDDKLKGQEFAPSHQQVYAPLRADGDKPRAHLTVVRQTPTQHFKNQFPALHWEHELGLAFTKNRMNYTNKFLLIPESGDYFIYSQVTFRGMTSECSEIRQAGRPNKPDSITVVITKVTDSYPEPTQLLMGTKSVCEVGSNWFQPIYLGAMFSLQEGDKLMVNVSDISLVDYTKEDKTFFGAFLL
notes: also called FLAG-TNF-gamma-beta; FLAG-TL1β
no binding: all assays above
